Source: patent publication US20230118024A1 (Chugai, published 2023)
Like-named read-outs stand apart in the source and are kept apart here.

T1: recombinant HLA-DQ2.5/33mer gliadin peptide complex (human; wheat)
T1 construct: also called soluble HLA-DQ2.5/33mer gliadin peptide complex
T1 alpha: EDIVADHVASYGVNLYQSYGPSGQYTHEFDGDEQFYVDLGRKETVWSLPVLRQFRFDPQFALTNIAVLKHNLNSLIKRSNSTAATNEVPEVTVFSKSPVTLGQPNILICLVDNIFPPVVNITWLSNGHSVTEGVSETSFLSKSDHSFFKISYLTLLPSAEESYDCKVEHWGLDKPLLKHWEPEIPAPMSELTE
T1 beta: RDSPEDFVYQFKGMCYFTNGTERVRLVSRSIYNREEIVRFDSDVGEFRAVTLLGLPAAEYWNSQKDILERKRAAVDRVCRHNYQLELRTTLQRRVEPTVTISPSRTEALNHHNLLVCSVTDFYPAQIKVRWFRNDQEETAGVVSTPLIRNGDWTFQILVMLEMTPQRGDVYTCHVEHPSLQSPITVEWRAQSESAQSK
T1 peptide: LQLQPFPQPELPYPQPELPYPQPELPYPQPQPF

T2: HLA-DQ2.5 on Ba/F3 cells (not in the form of a complex with a linked peptide) (human, UniProt P01909 24-254; P01920 33-261)
T2 construct: also called Ba/F3-HLA-DQ2.5; No peptide
T2 MHC II alpha: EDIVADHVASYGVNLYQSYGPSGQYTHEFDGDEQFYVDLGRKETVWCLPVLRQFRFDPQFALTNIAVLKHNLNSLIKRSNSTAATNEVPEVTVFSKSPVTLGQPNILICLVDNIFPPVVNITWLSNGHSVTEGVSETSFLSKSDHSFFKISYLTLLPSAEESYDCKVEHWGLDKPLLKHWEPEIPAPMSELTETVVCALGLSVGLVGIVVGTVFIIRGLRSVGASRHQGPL
T2 MHC II beta: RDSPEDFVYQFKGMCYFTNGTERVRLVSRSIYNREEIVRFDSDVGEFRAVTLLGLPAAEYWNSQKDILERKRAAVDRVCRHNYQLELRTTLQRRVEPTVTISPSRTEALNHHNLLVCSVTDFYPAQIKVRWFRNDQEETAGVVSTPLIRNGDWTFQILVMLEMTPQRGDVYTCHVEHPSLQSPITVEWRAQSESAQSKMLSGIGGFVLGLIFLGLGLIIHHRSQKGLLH

T3: HLA-DQ2.5 on HLA-DQ2.5 positive PBMC-B cells (human, UniProt P01909 24-254; P01920 33-261)
T3 construct: also called DQ2.5 + PBMC; HLA-DQ2.5+PBMC B cell
T3 MHC II alpha: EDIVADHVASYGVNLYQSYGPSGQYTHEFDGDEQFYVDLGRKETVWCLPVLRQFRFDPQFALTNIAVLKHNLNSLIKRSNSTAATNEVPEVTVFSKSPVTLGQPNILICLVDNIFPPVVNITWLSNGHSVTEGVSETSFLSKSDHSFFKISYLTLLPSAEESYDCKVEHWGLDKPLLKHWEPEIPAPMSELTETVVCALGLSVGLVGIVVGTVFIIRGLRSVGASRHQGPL
T3 MHC II beta: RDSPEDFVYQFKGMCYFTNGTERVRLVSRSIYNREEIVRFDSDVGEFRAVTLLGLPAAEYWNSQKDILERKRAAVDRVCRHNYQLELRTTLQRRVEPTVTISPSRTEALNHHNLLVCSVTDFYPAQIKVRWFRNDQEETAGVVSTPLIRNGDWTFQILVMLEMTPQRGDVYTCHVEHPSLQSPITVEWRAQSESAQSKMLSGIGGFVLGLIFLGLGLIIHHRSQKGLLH


Legend:
[1] = molecular target: T1, recombinant HLA-DQ2.5/33mer gliadin …; experiment: AlphaLISA neutralizing assay: biotinylated HLA-DQ2.5/33mer gliadin peptide complex on acceptor beads, biotinylated D2 TCR on donor beads; blocked ligand: D2 TCR (Example 4.4)
[2] = molecular target: T1, recombinant HLA-DQ2.5/33mer gliadin …; experiment: SPR, Ab captured, 37 C, pH 7.4
[3] = molecular target: T1, recombinant HLA-DQ2.5/33mer gliadin …; experiment: SPR, Ab captured, 37 C, pH 7.4
[4] = molecular target: T4, HLA-DQ2.5/alpha 2 gliadin peptide complex on Ba/F3 cells (human; wheat); experiment: FACS
T4 construct: also called Ba/F3-HLA-DQ2.5/alpha 2 gliadin peptide

[5] = molecular target: T5, HLA-DQ2.5/CLIP peptide complex on Ba/F3 cells (human); experiment: FACS
T5 construct: also called Ba/F3-HLA-DQ2.5/CLIP peptide

[6] = molecular target: T6, HLA-DQ2.5/secalin 2 peptide complex on Ba/F3 cells (human; rye); experiment: FACS
T6 construct: also called Ba/F3-HLA-DQ2.5/secalin 2 peptide

[7] = molecular target: T7, HLA-DQ2.5/omega 2 gliadin peptide complex on Ba/F3 cells (human; wheat); experiment: FACS
T7 construct: also called Ba/F3-HLA-DQ2.5/omega 2 gliadin peptide

[8] = molecular target: T8, HLA-DQ2.5/33mer gliadin peptide complex on Ba/F3 cells (human; wheat); experiment: FACS
T8 construct: also called Ba/F3-HLA-DQ2.5/33mer gliadin peptide; HLA-DQ2.5/gliadin peptide complex

[9] = molecular target: T2, HLA-DQ2.5 on Ba/F3 cells (not in the …); experiment: FACS
[10] = molecular target: T3, HLA-DQ2.5 on HLA-DQ2.5 positive PBMC-B …; experiment: FACS
[11] = molecular target: T9, HLA-DQ2.5/secalin 1 peptide complex on Ba/F3 cells (human; rye); experiment: FACS
T9 construct: also called Ba/F3-HLA-DQ2.5/secalin 1 peptide

[12] = molecular target: T10, HLA-DQ2.5/omega 1 gliadin peptide complex on Ba/F3 cells (human; wheat); experiment: FACS
T10 construct: also called Ba/F3-HLA-DQ2.5/omega 1 gliadin peptide

[13] = molecular target: T11, HLA-DQ2.5/alpha 1 gliadin peptide complex on Ba/F3 cells (human; wheat); experiment: FACS
T11 construct: also called Ba/F3-HLA-DQ2.5/alpha 1 gliadin peptide

[14] = molecular target: T12, HLA-DQ2.5/alpha 1b gliadin peptide complex on Ba/F3 cells (human; wheat); experiment: FACS
T12 construct: also called Ba/F3-HLA-DQ2.5/alpha 1b gliadin peptide

[15] = molecular target: T1, recombinant HLA-DQ2.5/33mer gliadin …; experiment: AlphaLISA neutralizing assay: biotinylated HLA-DQ2.5/33mer gliadin peptide complex on acceptor beads, biotinylated D2 TCR on donor beads; blocked ligand: D2 TCR (Example 12)
[16] = molecular target: T8, HLA-DQ2.5/33mer gliadin peptide complex …; experiment: cell-based or functional assay

Row | Binder | IC50 (read off the curve) [1] | Kd [2] | Kd [3] | FIG. 30 FACS value (IC17=0, DQN0139bb=100) [4] | FIG. 30 FACS value (IC17=0, DQN0139bb=100) [5] | FIG. 30 FACS value (IC17=0, DQN0139bb=100) [6] | FIG. 30 FACS value (IC17=0, DQN0139bb=100) [7] | FIG. 30 FACS value (IC17=0, DQN0139bb=100) [8] | FIG. 30 FACS value (IC17=0, DQN0139bb=100) [9] | FIG. 30 FACS value (IC17=0, DQN0139bb=100) [10] | FIG. 30 FACS value (IC17=0, DQN0139bb=100) [11] | FIG. 30 FACS value (IC17=0, DQN0139bb=100) [12] | FIG. 30 FACS value (IC17=0, DQN0139bb=100) [13] | FIG. 30 FACS value (IC17=0, DQN0139bb=100) [14] | IC50 (read off the curve) [15] | IC50 (read off the curve) [16]
1 | DQN0282ff (antibody, human IgG1, kappa, V domains shown, also called DQN0282Hf; DQN0282Lf) VH: QSVEESGGRLVTPGTPLTLSCKASGFDFSIYYMSWVRQAPGKGLEWIGVINSGGGVTWYASWVKGRFTISKTSTTVDLKITSPTTEDTATYFCARLGDSNHYDLWGPGTLVTVSS VL: AYDMTQTPSSVSAAVGGTVTIKCQASETISSYLAWYQQKPGQRPQLLIYDASNLASGVPSRFKGSGSGTEFTLTISDLECADAATYYCQTHYYITSTTFGGGTKVEIKR | ~0.3 µg/mL | 13.7 nM | 11.4 nM | 34.5 | 28.7 | 48 | 42.6 | 73.5 | 3 | 4.3 | 49.6 | 7 | 32.6 | 20.9 |  | 
2 | DQN0334bb (antibody, human IgG1, kappa, V domains shown, also called DQN0334Hb; DQN0334Lb) VH: QQQLEESGGDLVQPEGSLTLTCKASGFDFSFNAMCWVRQAPGRGPEWIACIYNGNGSTYYASWAKGRFTISKTSSTSVTLQMTSLTAADTATYFCARGGYGLGYAGYGDVNYFNLWGPGTLVTVSS VL: AVVLTQTASPVSAPVGGTVTIKCQASEDIYFLLAWYRQKPGQPPKLLIYGASTLASGVPSRFKGSGSGTEYTLTISDLECADAATYYCQSYWYGDSGPNTFGGGTKVEIKR | ~1 µg/mL | 6.29 nM | 5.72 nM | 45.3 | 1.2 | 3.3 | 36.6 | 65.9 | 0.4 | 0.8 | 5 | 2.8 | 46.4 | 16.5 | ~0.7 µg/mL | 
3 | DQN0324hh (antibody, human IgG1, kappa, V domains shown, also called DQN0324Lh) VH: QSLEESGGDLVKPGASLALTCTASGFSLINNYYMCWVRQAPGKGLEWIACIYAGLGGWTYYASWAKGRFTISKTSSTTVTLQMSSLTVADAATYFCARAATTYYHFNLWGPGTLVTVSS VL: AVVLTQTESPVSAAVGDTVTIKCQASQSIGNALAWYQQKPGQPPKLLIYDASTLASGVPSRFKGSGSGTQFTLTISDLECADAATYYCQSYDYGSSADTYTFGGGTKVEIKR |  |  | 6.32 nM | 34.9 | 0.3 | 14.5 | 79.4 | 59.2 | 0 | 0.3 | 16.3 | 7.3 | 26.9 | 8.2 |  | ~0.2 µg/mL
4 | DQN0225dd (antibody, human IgG1, kappa, V domains shown, also called DQN0225Hd; DQN0225Ld) VH: QSLEESGGGLVKPGGTLTLTCTASGFSFSSAYYMCWVRQAPGKGLEWIACIYVGSGSTYYASWAQGRCTISKASSTTVTLQMTSLTAADTATYFCARDPLIYYYYGELNLWGPGTLVTVSS VL: AVVLTQTASPVSAPVGGTVTIKCQASEDISSNLAWYQQKPGQRPKVLIYSASTLASGVSSQFKGSGSGTQFTLTISDLECADAATYYCQSYYDISSVTFGGGTKVEIKR |  |  | 7.88 nM | 85.1 | 1.2 | 68.7 | 62 | 108 | -0.1 | -0.1 | 77.2 | 75.6 | 93.5 | 81.3 |  | ~0.3 µg/mL
